One substance from publication PMC5638340 can be followed below.

By IC50 is commonly meant the concentration that gives 50% inhibition. Read a high IC50 as weaker potency in that assay. By Kd is commonly meant the free concentration of one partner at which half of the binding sites on the other are occupied at equilibrium, for simple one-to-one binding. A high value points to a looser complex.

Test [1] has as its target Muscle-type nAChR of Torpedo californica electric organ (Torpedo californica). The experiment in a line: radioligand binding.
Test [2] deals with Human α7 nAChR expressed in GH4C1 cells (human) (UniProt P36544). The test can be described thus: radioligand binding.
In test [3] the target is Acetylcholine binding protein (AChBP) from Lymnaea stagnalis (L. stagnalis) (UniProt P58154). The experiment in a line: radioligand binding.
Test [4] shares this target. The test can be described thus: SPR. On the technique in general: In SPR one partner is held on a chip, and binding of the other changes the refractive index at the surface.

Muscle-type nAChR of Torpedo californica electric organ (Torpedo californica), sequence (P02710 25-461, chain 1 of 4): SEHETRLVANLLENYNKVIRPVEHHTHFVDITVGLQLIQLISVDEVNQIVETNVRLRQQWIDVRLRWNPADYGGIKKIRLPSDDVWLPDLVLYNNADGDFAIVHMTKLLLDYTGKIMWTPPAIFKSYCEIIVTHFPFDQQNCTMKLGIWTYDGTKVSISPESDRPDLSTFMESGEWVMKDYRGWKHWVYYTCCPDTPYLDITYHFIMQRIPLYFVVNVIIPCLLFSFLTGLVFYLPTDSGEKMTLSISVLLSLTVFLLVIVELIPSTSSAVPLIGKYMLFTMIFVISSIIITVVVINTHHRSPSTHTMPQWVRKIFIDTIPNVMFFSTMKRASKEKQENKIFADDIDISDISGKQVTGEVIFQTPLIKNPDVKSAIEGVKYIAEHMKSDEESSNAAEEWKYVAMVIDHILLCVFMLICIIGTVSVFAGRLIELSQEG
Muscle-type nAChR of Torpedo californica electric organ (Torpedo californica), sequence (P02712 25-493, chain 2 of 4, further chain): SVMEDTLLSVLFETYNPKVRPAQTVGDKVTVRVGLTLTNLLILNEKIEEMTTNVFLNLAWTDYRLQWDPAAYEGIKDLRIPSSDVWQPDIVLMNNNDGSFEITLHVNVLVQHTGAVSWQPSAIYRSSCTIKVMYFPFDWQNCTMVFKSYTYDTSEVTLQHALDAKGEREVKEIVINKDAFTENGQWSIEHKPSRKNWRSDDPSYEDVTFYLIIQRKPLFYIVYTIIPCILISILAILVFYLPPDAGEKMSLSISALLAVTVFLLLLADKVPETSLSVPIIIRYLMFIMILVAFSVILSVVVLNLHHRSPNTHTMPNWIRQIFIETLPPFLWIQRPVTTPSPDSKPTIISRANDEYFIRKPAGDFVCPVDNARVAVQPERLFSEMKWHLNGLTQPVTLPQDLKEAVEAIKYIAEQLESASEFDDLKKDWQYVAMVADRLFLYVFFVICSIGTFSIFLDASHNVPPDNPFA
Muscle-type nAChR of Torpedo californica electric organ (Torpedo californica), sequence (P02714 18-506, chain 3 of 4, further chain): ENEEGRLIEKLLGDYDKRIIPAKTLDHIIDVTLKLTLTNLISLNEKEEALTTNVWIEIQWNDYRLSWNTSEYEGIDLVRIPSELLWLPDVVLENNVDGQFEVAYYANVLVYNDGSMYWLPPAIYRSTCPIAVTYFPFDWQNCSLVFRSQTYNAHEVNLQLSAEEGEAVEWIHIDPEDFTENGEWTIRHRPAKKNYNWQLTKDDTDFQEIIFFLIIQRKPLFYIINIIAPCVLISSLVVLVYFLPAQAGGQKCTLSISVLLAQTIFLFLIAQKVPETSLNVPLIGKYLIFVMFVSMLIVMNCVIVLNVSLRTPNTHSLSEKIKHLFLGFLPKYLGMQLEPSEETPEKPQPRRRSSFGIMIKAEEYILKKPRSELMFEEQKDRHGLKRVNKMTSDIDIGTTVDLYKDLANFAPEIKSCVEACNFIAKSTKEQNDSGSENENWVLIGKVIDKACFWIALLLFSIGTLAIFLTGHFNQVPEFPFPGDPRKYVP
Muscle-type nAChR of Torpedo californica electric organ (Torpedo californica), sequence (P02718 22-522, chain 4 of 4, further chain): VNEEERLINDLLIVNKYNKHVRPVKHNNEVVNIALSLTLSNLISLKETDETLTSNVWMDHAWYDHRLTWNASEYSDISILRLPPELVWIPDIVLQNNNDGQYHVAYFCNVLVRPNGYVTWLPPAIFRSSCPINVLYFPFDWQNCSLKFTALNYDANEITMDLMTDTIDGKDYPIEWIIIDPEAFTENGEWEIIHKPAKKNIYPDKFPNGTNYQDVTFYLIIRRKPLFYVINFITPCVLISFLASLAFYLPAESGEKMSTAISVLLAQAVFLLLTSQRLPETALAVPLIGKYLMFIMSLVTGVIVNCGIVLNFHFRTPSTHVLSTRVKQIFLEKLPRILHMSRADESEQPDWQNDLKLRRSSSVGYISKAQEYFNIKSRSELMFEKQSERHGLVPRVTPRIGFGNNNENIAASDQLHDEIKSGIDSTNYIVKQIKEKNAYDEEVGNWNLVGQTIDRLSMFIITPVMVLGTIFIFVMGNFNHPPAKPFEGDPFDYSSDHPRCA
Acetylcholine binding protein (AChBP) from Lymnaea stagnalis (L. stagnalis), sequence (P58154 20-229): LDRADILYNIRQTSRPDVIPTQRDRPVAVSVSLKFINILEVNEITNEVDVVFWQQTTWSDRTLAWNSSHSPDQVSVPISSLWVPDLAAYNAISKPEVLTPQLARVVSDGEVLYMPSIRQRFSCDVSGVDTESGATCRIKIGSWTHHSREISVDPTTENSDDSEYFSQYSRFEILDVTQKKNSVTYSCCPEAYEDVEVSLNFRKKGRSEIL
Human α7 nAChR expressed in GH4C1 cells (human), sequence (P36544 23-502): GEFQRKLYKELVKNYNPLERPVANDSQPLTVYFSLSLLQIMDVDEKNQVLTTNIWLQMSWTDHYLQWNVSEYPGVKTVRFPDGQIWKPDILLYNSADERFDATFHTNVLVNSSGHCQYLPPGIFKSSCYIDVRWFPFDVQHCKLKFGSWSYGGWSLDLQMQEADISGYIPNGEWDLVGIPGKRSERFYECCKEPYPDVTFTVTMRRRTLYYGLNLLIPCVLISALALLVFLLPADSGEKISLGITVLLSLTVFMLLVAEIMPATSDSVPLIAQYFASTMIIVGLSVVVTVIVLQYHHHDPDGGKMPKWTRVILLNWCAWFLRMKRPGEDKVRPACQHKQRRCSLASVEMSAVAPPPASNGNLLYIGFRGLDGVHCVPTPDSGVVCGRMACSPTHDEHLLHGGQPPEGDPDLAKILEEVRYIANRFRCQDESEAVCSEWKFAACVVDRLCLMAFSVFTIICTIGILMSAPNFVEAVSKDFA

Consider “Crotoxin from Crotalus durissus terrificus venom (complex)”, for which the IC50, high affinity site (two-site model) in test [1] was found to be 30 nM; in test [2], 4.9 nM. For the same substance, the IC50, low affinity site (two-site model) is 260 nM in test [1] and 15000 nM in test [2]. Moreover, the IC50 in test [3] came to 640 nM. The substance also returned a Kd in test [4] of 120 nM.
